B1: Retinoic acid receptor RXR-alpha, residues 132 to 208; numbered along this chain, P19793 (parent)
chain: KHICAICGDRSSGKHYGVYSCEGCKGFFKRTVRKDLTYTCRDNKDCLIDKRQRNRCQYCRYQKCLAMGMKREAVQEE

± gives the uncertainty stated by the source.

The data set covers variants of B1. Briefly: abundance fitness (aPCA) (normalised: wild type 0, dead -1); higher = more abundant; growth selection in yeast, the domain comes from the species named. The note with it: Homo sapiens.
On to KHICAICGDRSSGKHYGVYSCEGCKGFFKRTVRKDLTYTCRDNKDCLIDKRQRNRCQYCRYQKCLYMGMKREAVQEE [A66Y], for which the abundance fitness was -0.036 ± 0.036.
The figure for KHICAICGDRSSGKHYGVYSCEGCKGFFKRTVRKDLTYTCRDNKDCLIDKRQRNRCQYCRYQKCLPMGMKREAVQEE [A66P] is -0.713 ± 0.064.
Take KHICAICGDRSSGKHYGVYSCEGCKGFFKRTVRKDLTYTCRDNKDCLIDKRQRNRCQYYRYQKCLAMGMKREAVQEE [C59Y]: the abundance fitness is -0.418 ± 0.11.
The figure for KHICAICGDRSSGKHYGVYSCEGCKGFFKRTVRKDLTYTCRDNKDCLIDKRQRNRCQYERYQKCLAMGMKREAVQEE [C59E] is -0.59 ± 0.09; for KHICAICGDRSSGKHYGVYSCEGCKGFFKRTVRKDLTYTCRDNKDCLIDKRQRNRCQYVRYQKCLAMGMKREAVQEE [C59V] it is -0.915 ± 0.097.
Next, KHICAICGDRSSGKHYGVYSCEGCKGFFKRTVRKDLTYTCRDNKDCLIDKRQRNRCQYGRYQKCLAMGMKREAVQEE [C59G]: -0.861 ± 0.085; KHICAICGDRSSGKHYGVYSCEGCKGFFKRTVRKDLTYTCRDNKDCLIDKRQRNRCQYTRYQKCLAMGMKREAVQEE [C59T]: -0.651 ± 0.097; KHICAICGDRSSGKHYGVYSCEGCKGFFKRTVRKDLTYTCRDNKDCLIDKRQRNRCQYDRYQKCLAMGMKREAVQEE [C59D]: -0.647 ± 0.16.
The figure for KHICAICGDRSSGKHYGVYSCEGCKGFFKRTVRKDLTYTCRDNKDCLIDKRQRNRCQYSRYQKCLAMGMKREAVQEE [C59S] is -0.657 ± 0.075; for KHICAICGDRSSGKHYGVYSCEGCKGFFKRTVRKDLTYTCRDNKDCLIDKRQRNRCQYMRYQKCLAMGMKREAVQEE [C59M] it is -1.08 ± 0.19.
Regarding KHICAICGDRSSGKHYGVYSCEGCKGFFKRTVRKDLTYTCRDNKDCLIDKRQRNRCQYRRYQKCLAMGMKREAVQEE [C59R], the abundance fitness is -0.955 ± 0.11.
Regarding KHICAICGDRSSGKHYGVYSCEGCKGFFKRTVRKDLTYTCRDNKDCLIDKRQRNRCQYHRYQKCLAMGMKREAVQEE [C59H], the abundance fitness was -0.066 ± 0.073.
KHICAICGDRSSGKHYGVYSCEGCKGFFKRTVRKDLTYTCRDNKDCLIDKRQRNRCQYWRYQKCLAMGMKREAVQEE [C59W]: the abundance fitness was -0.427 ± 0.091.
Regarding KHICAICGDRSSGKHYGVYSCEGCKGFFKRTVRKDLTYTCRDNKDCLIDKRQRNRCQYLRYQKCLAMGMKREAVQEE [C59L], the abundance fitness is -0.911 ± 0.1.
The figure for KHICAICGDRSSGKHYGVYSCEGCKGFFKRTVRKDLTYTCRDNKDCLIDKRQRNRCQYARYQKCLAMGMKREAVQEE [C59A] is -0.748 ± 0.085; for KHICAICGDRSSGKHYGVYSCEGCKGFFKRTVRKDLTYTCRDNKDCLIDKRQRNRCQYNRYQKCLAMGMKREAVQEE [C59N] it is -1.13 ± 0.46.
The figure for KHICAICGDRSSGKHYGVYSCEGCKGFFKRTVRKDLTYTCRDNKDCLIDKRQRNRCQYKRYQKCLAMGMKREAVQEE [C59K] is -1.05 ± 0.31; for KHICAICGDRSSGKHYGVYSCEGCKGFFKRTVRKDLTYTCRDNKDCLIDKRQRNRCQYIRYQKCLAMGMKREAVQEE [C59I] it is -0.977 ± 0.29; for KHICAICGDRSSGKHYGVYSCEGCKGFFKRTVRKDLTYTCRDNKDCLIDKRQRNRCQYFRYQKCLAMGMKREAVQEE [C59F] it is -1.05 ± 0.21.
The figure for KHICAICGDRSSGKHYGVYSCEGCKGFFKRTVRKDLTYTCRDNKDCLIDKRQRNRCQYPRYQKCLAMGMKREAVQEE [C59P] is -0.753 ± 0.12; for KHICAICGDRSSGKHYGVYSCEGCKGFFKRTVRKDLTYTCRDNKDCLIDKRQRNRCQYCRHQKCLAMGMKREAVQEE [Y61H] it is -0.08 ± 0.4.
Turning to KHICAICGDRSSGKHYGVYSCEGCKGFFKRTVRKDLTYTCRDNKDCLIDKRQRNRCQYCRNQKCLAMGMKREAVQEE [Y61N], the abundance fitness is 0.101 ± 0.16.
Regarding KHICAICGDRSSGKHYGVYSCEGCKGFFKRTVRKDLTYTCRDNKDCLIDKRQRNRCQYCRCQKCLAMGMKREAVQEE [Y61C], the abundance fitness was -0.06 ± 0.28.
Next, KHICAICGDRSSGKHYGVYSCEGCKGFFKRTVRKDLTYTCRDNKDCLIDKRQRNRCQYCRYQKCLAAGMKREAVQEE [M67A]: 0.009 ± 0.029.
Next, KHICAICGDRSSGKHYGVYSCEGCKGFFKRTVRKDLTYTCRDNKDCLIDKRQRNRCQYCRYQKCLAGGMKREAVQEE [M67G]: -0.023 ± 0.026.
With KHICAICGDRSSGKHYGVYSCEGCKGFFKRTVRKDLTYTCRDNKDCLIDKRQRNRCQYCRYQKCLAQGMKREAVQEE [M67Q], the abundance fitness is -0.017 ± 0.036.
KHICAICGDRSSGKHYGVYSCEGCKGFFKRTVRKDLTYTCRDNKDCLIDKRQRNRCQYCRYQKCLARGMKREAVQEE [M67R]: the abundance fitness was 0 ± 0.026.
Next, KHICAICGDRSSGKHYGVYSCEGCKGFFKRTVRKDLTYTCRDNKDCLIDKRQRNRCQYCRYQKCLAKGMKREAVQEE [M67K]: 0.007 ± 0.036.
Next, KHICAICGDRSSGKHYGVYSCEGCKGFFKRTVRKDLTYTCRDNKDCLIDKRQRNRCQYCRYQKCLACGMKREAVQEE [M67C]: -0.019 ± 0.035; KHICAICGDRSSGKHYGVYSCEGCKGFFKRTVRKDLTYTCRDNKDCLIDKRQRNRCQYCRYQKCLAIGMKREAVQEE [M67I]: 0.007 ± 0.031.
Next, KHICAICGDRSSGKHYGVYSCEGCKGFFKRTVRKDLTYTCRDNKDCLIDKRQRNRCQYCRYQKCLAEGMKREAVQEE [M67E]: -0.016 ± 0.036; KHICAICGDRSSGKHYGVYSCEGCKGFFKRTVRKDLTYTCRDNKDCLIDKRQRNRCQYCRYQKCLANGMKREAVQEE [M67N]: -0.006 ± 0.032.
KHICAICGDRSSGKHYGVYSCEGCKGFFKRTVRKDLTYTCRDNKDCLIDKRQRNRCQYCRYQKCLAPGMKREAVQEE [M67P]: the abundance fitness is -0.621 ± 0.052.
For KHICAICGDRSSGKHYGVYSCEGCKGFFKRTVRKDLTYTCRDNKDCLIDKRQRNRCQYCRYQKCLALGMKREAVQEE [M67L], the abundance fitness amounted to 0.018 ± 0.025.
Next, KHICAICGDRSSGKHYGVYSCEGCKGFFKRTVRKDLTYTCRDNKDCLIDKRQRNRCQYCRYQKCLAFGMKREAVQEE [M67F]: -0.017 ± 0.032; KHICAICGDRSSGKHYGVYSCEGCKGFFKRTVRKDLTYTCRDNKDCLIDKRQRNRCQYCRYQKYLAMGMKREAVQEE [C64Y]: -0.421 ± 0.4.

Source of the values: the Human Domainome abundance scans (Beltran et al. 2025).
